Experiment [1] concerns the target T1, human EMAPII (endothelial monocyte activating polypeptide II) antigen (human).
T1 chain: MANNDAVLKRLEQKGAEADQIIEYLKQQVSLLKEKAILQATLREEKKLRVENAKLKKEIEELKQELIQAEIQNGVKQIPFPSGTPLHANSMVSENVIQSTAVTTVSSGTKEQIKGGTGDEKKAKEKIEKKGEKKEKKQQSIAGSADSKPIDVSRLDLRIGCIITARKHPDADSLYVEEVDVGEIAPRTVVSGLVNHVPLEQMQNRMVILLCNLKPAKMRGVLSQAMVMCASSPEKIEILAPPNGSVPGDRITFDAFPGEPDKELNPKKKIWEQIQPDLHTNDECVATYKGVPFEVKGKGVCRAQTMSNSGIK
In words: ELISA, plate coated with EMAPII antigen, anti-mouse IgG-HRP detection. A general note: An ELISA detects its analyte on a solid surface through an enzyme-linked reagent.

Experiment [2] concerns the target T1, human EMAPII (endothelial monocyte …). Nature of the experiment: ELISA, plate coated with 2.5 ug/ml EMAPII antigen, anti-human-IgG HRP detection; range over the 3 clones.

Several values for one entry are separate records, joined by “and”; a condition that tells them apart may be missing. Identical values can stand only once.

B1: mouse anti-EMAPII monoclonal antibody (antibody, V domains shown)
VH: QVQLQQSGAELARPGASVKMSCKASGYTFTSYTMHWVKQRPGQGLEWIGYINPSSGFTNYNQKFKDKATLTADKSSSTAYMQLSSLTSEDSAVYYCASRFAYWGQGTLVTVSA
VL: DIVMTQSHKFMSTSVGDRVSITCKASQDVSTAVAWYQQKPGQSPKLLIFSASYRYTGVPDRFTGSGSGTDFTFTISSVQAEDLAVYYCQQHYSTPYTFGGGTKLEIK
What is called EC50 is the concentration that produces a half-maximal response. Low values mean greater potency, high ones weaker potency. In experiment [1], B1 gave an EC50 of 0.0209 µg/mL.

B2: mouse/human chimeric antibody BAP015_1 (antibody, V domains shown)
VH: B1 VH
VL: B1 VL
In the case of B2, the EC50 in experiment [2] is 0.0215 µg/mL and 0.0302 µg/mL.

(Values after patent US9382316B2, “Humanized anti-EMAP II antibody and use thereof” (Cell & Bio Co., Ltd., dated 2016).)
